The results in this text go back to patent US20020164640A1 (IMMUNEX, published 2002).

This assay concerns the target T1, IRAK (UniProt P51617 1-712, limits assumed).
T1 construct: Overexpressed in HEK293 cells and detected by western blotting with anti-IRAK; No tag is stated; also called IL-1 receptor associated Kinase; IRAK1
Nature of the assay: co-immunoprecipitation from transfected HEK293 cells: anti-HA IP, anti-IRAK western blot. The method, then:
HEK 293 cells were transfected with a 5 x NF-KB reporter gene plasmid and co-transfected with plasmids encoding MAL-1 of SEQ ID NO:2 or MyD88 and increasing concentrations of IRAK. Luciferase reporter gene activity was measured. HEK293 cells were transfected with HA-MAL-1 and IRAK and the resulting overexpressed proteins were immunoprecipitated using an anti-HA antibody to isolate MAL-1 complexes and interactions were detected by western blotting to detect anti-IRAK. IRAK could not be detected in the anti-HA-MAL immunoprecipitates. HEK293 cells were transfected with AU-1-MyD88 and IRAK and the resulting overexpressed proteins were immunoprecipitated using an anti-AU1 antibody to isolate MyD88 complexes and interactions were detected by western blotting for anti-IRAK. IRAK was detected in the anti-Aul-MyD88 immunoprecipitates.
(In general: In western blotting, separated proteins are transferred to a membrane and probed.)

T1 sequence (P51617 whole entry): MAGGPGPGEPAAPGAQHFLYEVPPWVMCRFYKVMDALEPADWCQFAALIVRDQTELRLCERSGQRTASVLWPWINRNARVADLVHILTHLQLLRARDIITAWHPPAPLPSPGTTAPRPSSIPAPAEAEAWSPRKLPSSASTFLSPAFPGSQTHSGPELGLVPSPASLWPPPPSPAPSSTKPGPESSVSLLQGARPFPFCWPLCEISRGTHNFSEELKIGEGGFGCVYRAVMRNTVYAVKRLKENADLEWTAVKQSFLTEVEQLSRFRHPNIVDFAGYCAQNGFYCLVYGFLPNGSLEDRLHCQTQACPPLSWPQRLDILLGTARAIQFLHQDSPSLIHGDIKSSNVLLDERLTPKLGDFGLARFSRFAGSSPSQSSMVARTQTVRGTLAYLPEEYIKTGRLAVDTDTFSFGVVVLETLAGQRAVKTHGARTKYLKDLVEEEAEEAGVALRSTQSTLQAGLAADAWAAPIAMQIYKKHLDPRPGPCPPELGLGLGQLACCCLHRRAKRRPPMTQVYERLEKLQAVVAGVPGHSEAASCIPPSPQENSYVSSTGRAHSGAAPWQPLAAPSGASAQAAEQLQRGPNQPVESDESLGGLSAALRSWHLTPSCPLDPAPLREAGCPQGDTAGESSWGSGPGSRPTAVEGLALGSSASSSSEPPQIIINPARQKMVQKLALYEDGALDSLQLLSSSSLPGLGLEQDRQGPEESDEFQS

B1: full-length labelled MAL-1 (HA-MAL-1) (other, not shown: small tags and cut ends)
chain: MASSTSLPAPGSRPKKPLGKMADWFRQTLLKKPKKRPNSPESTSSDASQPTSQDNPLPPSLSSVTSPSLPPTHASDSGSSRWSKDYDVCVCHSEEDLVAAQDLVSYLEGSTASLRCFLQLRDATPGGAIVSELCQALSSSHCRVLLITPGFLQDPWCKYQMLQALTEAPGAEGCTIPLLSGLSRAAYPPELRFMYYVDGRGPDGGFRQVKEAVMRCKLLQEGEGERDSATVSDLL
notes: Overexpressed in HEK293 cells; also called tagged MAL-1
Turning to B1, the binding result is listed as “no binding”.
